Measured values: patent US6376217

Biological target: T1, human CD5 cell differentiation marker (human, UniProt P06127 25-495)
T1 sequence: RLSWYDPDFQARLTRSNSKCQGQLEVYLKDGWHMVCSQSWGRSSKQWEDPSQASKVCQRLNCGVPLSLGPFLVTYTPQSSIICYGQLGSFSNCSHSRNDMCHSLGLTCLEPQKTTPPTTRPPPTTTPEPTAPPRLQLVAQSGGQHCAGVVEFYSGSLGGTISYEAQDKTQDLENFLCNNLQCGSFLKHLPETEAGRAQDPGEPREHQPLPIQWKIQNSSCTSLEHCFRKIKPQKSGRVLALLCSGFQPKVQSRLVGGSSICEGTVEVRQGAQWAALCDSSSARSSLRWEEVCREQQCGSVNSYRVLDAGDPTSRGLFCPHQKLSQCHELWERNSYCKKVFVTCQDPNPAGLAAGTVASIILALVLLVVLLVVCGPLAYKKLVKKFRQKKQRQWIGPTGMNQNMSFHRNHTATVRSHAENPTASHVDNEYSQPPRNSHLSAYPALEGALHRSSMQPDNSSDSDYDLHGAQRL
Experiment: cell-based or functional assay

B1: he3Fab-rGelA50(C44) (other)
heavy: EIQLVQSGGGLVKPGGSVRISCAASGYTFTNYGMNWVRQAPGKGLEWMGWINTHTGEPTYADSFKGRFTFSLDDSKNTAYLQINSLRAEDTAVYFCTRRGYDWYFDVWGQGTTVTVSS
light: DIQMTQSPSSLSASVGDRVTITCRASQDINSYLSWFQQKPGKAPKTLIYRANRLESGVPSRFSGSGSGTDYTLTISSLQYEDFGIYYCQQYDESPWTFGGGTKLEIK
chain: GLDTVSFSTKGATYITYVNFLNELRVKLKPEGNSHGIPLLRKKCDDPGKAFVLVALSNDNGQLAEIAIDVTSVYVVGYQVRNRSYFFKDAPDAAYEGLFKNTIKTRLHFGGSYPSLEGEKAYRETTDLGIEPLRIGIKKLDENAIDNYKPTEIASSLLVVIQMVSEAARFTFIENQIRNNFQQRIRPANNTISLENKWGKLSFQIRTSGANGMFSEAVELERANGKKYYVTAVDQVKPKIALLKFVDKDPK
In the case of B1, the “IC50 (pMT), whole cell cytotoxicity, CEM Cells” value is reported as 173 pMT.
